Results as given in the Immune Epitope Database (IEDB).

Tests used:
[1] = target: HLA-B*51:01; assay: IEDB peptide-MHC binding, purified MHC/competitive/radioactivity; filed as Kd, often an IC50 or EC50 that approximates it; ≥ and ≤ were set here for values at or beyond the usual limits of such assays
[2] = target: HLA-B*53:01; assay: as above
[3] = target: HLA-A*26:01; assay: as above
[4] = target: HLA-B*07:02; assay: as above
[5] = target: HLA-A*02:01; assay: IEDB peptide-MHC binding, purified MHC/competitive/fluorescence; ≥ and ≤ were set here for values at or beyond the usual limits of such assays
[6] = target: HLA-A*69:01; assay: IEDB peptide-MHC binding, purified MHC/direct/fluorescence; filed as Kd, often an IC50 or EC50 that approximates it; ≥ and ≤ were set here for values at or beyond the usual limits of such assays
[7] = target: HLA-A*02:01; assay: as above
[8] = target: HLA-B*27:05; assay: as above; settings: source organism: Mammarenavirus lassaense
[9] = target: HLA-B*15:01; assay: as above
[10] = target: HLA-B*35:01; assay: IEDB peptide-MHC binding, purified MHC/competitive/radioactivity; filed as Kd, often an IC50 or EC50 that approximates it; ≥ and ≤ were set here for values at or beyond the usual limits of such assays; settings: source organism: Dengue virus 4 Philippines/H241/1956
[11] = target: HLA-A*01:01; assay: IEDB peptide-MHC binding, purified MHC/direct/fluorescence; filed as Kd, often an IC50 or EC50 that approximates it; ≥ and ≤ were set here for values at or beyond the usual limits of such assays
[12] = target: HLA-A*33:01; assay: IEDB peptide-MHC binding, purified MHC/competitive/radioactivity; filed as Kd, often an IC50 or EC50 that approximates it; ≥ and ≤ were set here for values at or beyond the usual limits of such assays; settings: source organism: SARS coronavirus Tor2
[13] = target: HLA-A*68:01; assay: as above; settings: source organism: SARS coronavirus Tor2
[14] = target: HLA-A*31:01; assay: as above; settings: source organism: SARS coronavirus Tor2
[15] = target: HLA-B*40:01; assay: IEDB peptide-MHC binding, purified MHC/direct/fluorescence; filed as Kd, often an IC50 or EC50 that approximates it; ≥ and ≤ were set here for values at or beyond the usual limits of such assays; settings: source organism: Mycobacterium tuberculosis
[16] = target: HLA-A*01:01; assay: IEDB peptide-MHC binding, purified MHC/competitive/radioactivity; filed as Kd, often an IC50 or EC50 that approximates it; ≥ and ≤ were set here for values at or beyond the usual limits of such assays; settings: source organism: Dengue virus 2 Jamaica/1409/1983
[17] = target: HLA-B*58:01; assay: IEDB peptide-MHC binding, purified MHC/direct/fluorescence; filed as Kd, often an IC50 or EC50 that approximates it; ≥ and ≤ were set here for values at or beyond the usual limits of such assays
[18] = source organism: Dengue virus 2 Jamaica/1409/1983
[19] = source organism: Dengue virus 1 Brazil/97-11/1997
[20] = source organism: Dengue virus 3 Martinique/1243/1999
[21] = source organism: Yersinia pestis
[22] = source organism: Dengue virus 4 Philippines/H241/1956
[23] = source organism: Entamoeba histolytica HM-1:IMSS
[24] = source organism: Bacillus cereus
[25] = source organism: Rickettsia sibirica
[26] = source organism: Dengue virus 4 Dominica/814669/1981
[27] = source organism: Escherichia coli

FPQSNAPIMD
Kd [1, 18]: 4160 nM
Kd [2, 18]: 113 nM

ETLGEKWKRQ
Kd [3, 19]: 12300 nM

TPMLRHTIEN
Kd [4, 20]: 1020 nM

DSLSSQMTS
IC50 ([5]; source organism: Vaccinia virus Copenhagen): ≥ 240000 nM

TPRAKRGTA
Kd [4, 19]: 227 nM

WQNLAWAGV
Kd [6, 21]: 7000 nM
Kd [7, 21]: 53.6 nM

LPIRYQTTA
Kd [1, 20]: 15900 nM

RRLKAEAQM
Kd [8]: 53 nM

TMGPHPAGV
Kd ([7]; source organism: Burkholderia pseudomallei): 0.7 nM

NPTTLIASL
Kd [4, 22]: 210 nM

ALSTGAGAY
Kd ([9]; source organism: Mycobacterium tuberculosis F11): 436 nM

MAICSAVPT
Kd [10]: 543 nM

NISLPLYTV
Kd [6, 23]: 8.5 nM
Kd [7, 23]: 47.5 nM

TPVTTWENV
Kd [1, 20]: 12900 nM

SSSLTSLLK
Kd ([11]; source organism: SARS-CoV1): 1110 nM
Kd [12]: ≥ 41500 nM
Kd [13]: 9330 nM
Kd [14]: 4760 nM

REAKATRPL
Kd [15]: 80.8 nM

FTTNIWLKL
Kd [16]: 1330 nM

GTTFAEGVV
IC50 ([5]; source organism: Zaire ebolavirus): 31100 nM

LIGLSSRATW
Kd [2, 22]: 378 nM

CPTQGEAVL
Kd [4, 20]: 53.7 nM

VVYRGTTTY
Kd ([9]; source organism: SARS-CoV1): 110 nM
Kd ([17]; source organism: SARS-CoV1): 281 nM
Kd [12]: ≥ 77700 nM
Kd [13]: 8790 nM
Kd [14]: 9740 nM

GIYCTVPFI
Kd [6, 24]: 388 nM
Kd [7, 24]: 111 nM

HTIENSTAN
Kd [3, 20]: 6990 nM

VSFSMVGLF
Kd ([17]; source organism: Mammarenavirus juninense): 119 nM

KLYFWIPWS
Kd [6, 25]: ≥ 20000 nM
Kd [7, 25]: 197 nM

LATGPILTLW
Kd [2, 26]: 15.1 nM

ISEPMFHQG
Kd [6, 27]: 1690 nM
Kd [11, 27]: 7130 nM

DTVTYKCPL
Kd [3, 26]: 1260 nM
